In the experiment the target is FMDV protomer (VP0, VP3 and VP1) from full-length capsid precursor P1-2A processed by 3C protease (foot-and-mouth disease virus, strain O1 Manisa). Kind of experiment: sucrose density gradient sedimentation.

“FMDV protomer (VP0, VP3 and VP1) from full-length capsid precursor P1-2A processed by 3C protease (complex)” came in with a reduction in pentamer formation with 17-DMAG, against no drug of 50% and a stoichiometry N of 5.

For orientation: stoichiometry N means the number of molecules, sites or subunits per partner or assembly.
